According to patent publication US20230265192A1 (GIGAGEN, published 2023):

Tests used:
[1] = biological target: T1, His-tagged cynomolgus CTLA-4 (CT4-C5227; Acro Biosystems) (cynomolgus, UniProt G7PL88 36-161); assay: BLI (Octet)
T1 construct: also called soluble cynomolgus CTLA-4; cyno CTLA-4
Protocol: (§1) The binding specificity and affinity of each full-length antibody towards CTLA-4 were determined using biolayer interferometry (BLI) and/or surface plasmon resonance (SPR). Anti-cyno CTLA-4 and anti-mouse CTLA-4 affinities were tested using ForteBio (BLI). Anti-human CTLA-4 affinities were measured using Carterra (SPR).
(§2) For BLI, antibodies were loaded onto an Anti-Human IgG Fc (AHC) biosensor using the Octet Red96 system (ForteBio). Loaded biosensors were dipped into antigen dilutions beginning at 300 nM, with 6 serial dilutions at 1:3. Kinetic analysis was performed using a 1:1 binding model and global fitting.

mouse CTLA-4 = mouse CTLA-4 (mouse, UniProt P09793 36-161, limits assumed); assay: BLI (Octet)
mouse CTLA-4, sequence (P09793 36-161 limits assumed): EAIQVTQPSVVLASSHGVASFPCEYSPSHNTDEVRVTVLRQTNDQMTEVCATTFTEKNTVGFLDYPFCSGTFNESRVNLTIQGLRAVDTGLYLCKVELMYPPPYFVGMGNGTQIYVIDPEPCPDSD
Protocol: as §1, §2

[2] = biological target: T2, His-tagged human CTLA-4 (CT4-H5229; Acro Biosystems) (human, UniProt P16410 36-161); assay: SPR (Carterra)
T2 construct: bought soluble protein; also called soluble human CTLA-4; recombinant human CTLA-4; not shown: His tag
T2 sequence (P16410 36-161 limits assumed): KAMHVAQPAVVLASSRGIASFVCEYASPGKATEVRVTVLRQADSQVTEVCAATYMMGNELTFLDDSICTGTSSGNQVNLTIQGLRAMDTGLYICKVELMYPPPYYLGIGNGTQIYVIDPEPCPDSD
Protocol: (§3) Then, goat anti-Human IgG Fc (Southern Biotech 2047-01) was coupled for 10 minutes at […] in 10 mM Sodim Acetate pH 4.5 (Carterra Inc.). The surface was then deactivated with 1 M ethanolamine pH 8.5 (Carterra Inc.). Running buffer used for the lawn immobilization was HBS-EPC (10 mM HEPES, 150 mM NaCl, 3 mM EDTA, 0.05% Tween 20, pH 7.4; Teknova).
(§4) The sensor chip was then transferred to a continuous flow microspotter (CFM; Carterra Inc.) for array capturing. The mAb supernatants were diluted 50-fold ([…] final concentration) into HBS-EPC with 1 mg/mL BSA. The samples were each captured twice with 15-minute and 4-minute capture steps on the first and second prints, respectively, to create multiple densities, using a […] flow rate. The running buffer in the CFM was also HBS-EPC.
(§5) Next, the sensor chip was loaded onto an SPR reader (MX-96 system; Ibis Technologies) for the kinetic analysis. CTLA-4 was injected at five increasing concentrations in a four-fold dilution series with concentrations of 1.95, 7.8, 31.25, 125, and 500 nM in running buffer (HBS-EPC with 1.0 mg/mL BSA). CTLA-4 injections were 5 minutes with a 15-minute dissociation at […] in a non-regenerative kinetic series. An injection of the goat anti-Human IgG Fc capture antibody at […] was injected at the end of the series to verify the capture level of each mAb. Binding data was double referenced by subtracting an interspot surface and a blank injection and analyzed for ka (on-rate), kd (off-rate), and KD (affinity) using the Kinetic Interaction Tool software (Carterra Inc.).

[3] = biological target: T2, His-tagged human CTLA-4 (CT4-H5229; …); assay: SPR (Carterra); remark: listed apart in the source
Protocol: as §3, §4, §5

[4] = biological target: T3, human CTLA-4 expressed on the cell surface (human, UniProt P16410 36-223); assay: cell-based or functional assay
T3 sequence (P16410 36-223 limits assumed): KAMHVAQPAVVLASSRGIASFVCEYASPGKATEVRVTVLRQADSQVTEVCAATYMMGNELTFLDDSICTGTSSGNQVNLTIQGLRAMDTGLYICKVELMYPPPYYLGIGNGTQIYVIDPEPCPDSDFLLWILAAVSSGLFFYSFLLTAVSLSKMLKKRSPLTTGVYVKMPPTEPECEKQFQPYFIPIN

[5] = biological target: T3, human CTLA-4 expressed on the cell …; assay: cell-based or functional assay; remark: listed apart in the source
[6] = biological target: T2, His-tagged human CTLA-4 (CT4-H5229; …); assay: SPR (Carterra), soluble human CTLA-4
[7] = biological target: T1, His-tagged cynomolgus CTLA-4 …; assay: BLI (Octet), single antigen concentration
Protocol: (§6) Table 23. In vitro characterization of scFvs reformatted as full-length antibodies. kon, koff, and KD of the indicated CTLA-4 mAbs for soluble human CTLA-4 was determined by SPR (Carterra). Geometric MFI of the indicated CTLA-4 mAbs bound to CTLA-4⁺ or CD27⁺ CHO cells as detected by a secondary human IgG antibody and flow cytometry. Affinity (KD) of the indicated CTLA-4 mAbs for soluble cynomolgus CTLA-4 was determined by a single antigen concentration BLI measurement (Octet). […] Due to constraints on sample size in each Promega bioassay kit, this set of aCTLA-4 mAbs was analyzed using multiple plates (plate letters correspond to Plate A-D in FIG. 20D).
Antibodies were loaded at 5 μg/mL onto Protein A biosensors that were dipped into 80 nM antigen, and kinetic constants were calculated using a monovalent model.

[8] = biological target: T3, human CTLA-4 expressed on the cell …; assay: flow cytometry, 10 µg/mL mAb, geometric MFI
Protocol: as §6
(§7) To determine if the CTLA-4 mAbs bound the appropriate antigen expressed on the surface of mammalian cells, CHO cell lines stably expressing human CTLA-4 or an irrelevant antigen (CD27) were generated. Cells (0.5×10⁶ each cell line) were combined and washed with MACS buffer (Dulbecco's Phosphate Buffered Saline [DPBS], with 0.5% bovine serum albumin [BSA], and 2 mM ethylenediaminetetraacetic acid [EDTA]). The cells were incubated with 10 μg/mL anti-CTLA-4 for 30 min at 4° C., then excess, unbound mAbs were removed by washing twice with MACS buffer. The cells were then stained with PE-conjugated anti-Human IgG Fc antibody (clone M1310G05, BioLegend 410720, San Diego, Calif., USA) to detect bound anti-CTLA-4 and with fluorescein isothiocyanate (FITC)-conjugated anti-CD27 (clone 0323, BioLegend 302806, San Diego, Calif., USA) to distinguish the cells expressing the irrelevant antigen. Cells were washed twice with MACS buffer, fixed with 4% paraformaldehyde fixation buffer (BioLegend 420801, San Diego, Calif., USA) for 20 minutes at room temperature and washed twice more with MACS buffer.

CD27 on CHO cells [9] = biological target: T4, CD27 on CHO cells (UniProt P26842 20-260, limits assumed); assay: flow cytometry, 10 µg/mL mAb, geometric MFI
T4 construct: whole, on cells; also called CD27+ CHO cells; irrelevant antigen (CD27)
T4 sequence (P26842 20-260 limits assumed): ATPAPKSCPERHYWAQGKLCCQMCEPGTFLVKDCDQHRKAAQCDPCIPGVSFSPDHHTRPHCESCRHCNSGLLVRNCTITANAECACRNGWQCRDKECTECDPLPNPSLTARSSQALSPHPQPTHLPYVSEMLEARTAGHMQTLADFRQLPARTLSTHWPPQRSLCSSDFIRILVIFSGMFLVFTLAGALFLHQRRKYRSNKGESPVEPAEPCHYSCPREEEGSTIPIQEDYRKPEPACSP
Protocol: as §6, §7

CD27 on CHO cells [10] = biological target: T4, CD27 on CHO cells; assay: flow cytometry, mixed CTLA-4+ and CD27+ CHO cells
Protocol: To determine if the CTLA-4 mAbs bound the appropriate antigen expressed on the surface of mammalian cells, CHO cell lines stably expressing human CTLA-4 or an irrelevant antigen (CD27) were generated. Cells (0.5×10⁶ each cell line) were combined and washed with MACS buffer (Dulbecco's Phosphate Buffered Saline [DPBS], with 0.5% bovine serum albumin [BSA], and 2 mM ethylenediaminetetraacetic acid [EDTA]). The cells were incubated with 10 μg/mL anti-CTLA-4 for 30 min at 4° C., then excess, unbound mAbs were removed by washing twice with MACS buffer. The cells were then stained with PE-conjugated anti-Human IgG Fc antibody (clone M1310G05, BioLegend 410720, San Diego, Calif., USA) to detect bound anti-CTLA-4 and with fluorescein isothiocyanate (FITC)-conjugated anti-CD27 (clone 0323, BioLegend 302806, San Diego, Calif., USA) to distinguish the cells expressing the irrelevant antigen. Cells were washed twice with MACS buffer, fixed with 4% paraformaldehyde fixation buffer (BioLegend 420801, San Diego, Calif., USA) for 20 minutes at room temperature and washed twice more with MACS buffer. […] Binding of mAbs to CTLA-4 on the cell surface was determined using LSR II (BD Biosciences, San Jose, Calif., USA) or CytoFLEX LX (Beckman Coulter, Brea. Calif., USA) flow cytometers and analyzed using FlowJo (v10.6.1, BD Biosciences, San Jose, Calif., USA).

[11] = biological target: T5, rcmCTLA-4-Fc from Sino Biological (90213-C02H) (cynomolgus monkey); assay: ELISA, against R&D rhCTLA-4 Fc on the same plate
T5 construct: also called Sino Biological rcmCTLA-4 Fc
Protocol: (§8) Recombinant human CTLA-4-Fc (rhCTLA-4) from R&D Systems (7268-CT-100, FIGS. 36A-36C) was coated at 1 ug/mL, on the other half of each of the plates. […] RhCTLA-4-Fc (ACROBiosystems, CT4-H5229, FIGS. 36D-E) was coated at 1 ug/mL, on the other half of each of these plates. After coating, the plates were incubated overnight at 4° C.
(§9) The following day, the plates were blocked with 5% milk in PBST for 1 hour on a plate shaker at room temperature. […] Excess, unbound mAbs were removed by washing with PBST. Bound mAbs were then detected with an HRP-conjugated anti-kappa light chain antibody (0.5 ug/ml, Southern Biotech 2060-50). After incubation on a plate shaker for 1 hour at room temperature and washing, the plates were developed with TMB substrate. After sufficient signal was achieved, 1 N hydrochloric acid was added to stop development. Absorbance at 450 nm was read using a Spectramax i3x plate reader (Molecular Devices). EC50 values were calculated by plotting absorbance vs. the log of concentration using Prism (GraphPad).

[12] = biological target: T6, rcmCTLA-4-Fc from ACROBiosystems (CT4-C5256) (cynomolgus monkey); assay: ELISA, against R&D rhCTLA-4 Fc on the same plate
T6 construct: also called ACROBiosystems rcmCTLA-4 Fc; ACROBiosystems cCTLA-4 Fc
Protocol: as §8, §9

T1 sequence (G7PL88 entry or part of it limits assumed, form in doubt): as the sequence (P16410 36-161 limits assumed) above, with S14N, I18T, L106M counted along it

Row | Binder | Kd [1] [nM] | binding result (mouse CTLA-4) | Kd [2] [nM] | Kd [3] [nM] | koff [3] [s⁻¹] | kon [3] [M⁻¹ s⁻¹] | Promega assay % inhibition [4] [%] | Promega assay antagonist (EC50, ug/mL) [4] [µg/mL] | Cell-based blocking activity EC50 [5] [µg/mL] | Cell-based blocking activity max signal (RLU) [5] [RLU] | Kd [6] [nM] | koff [6] [s⁻¹] | kon [6] [M⁻¹ s⁻¹] | Kd [7] [nM] | MFI of CTLA-4+ CHO cells [8] | MFI of CD27+ CHO cells (CD27 on CHO cells [9]) | binding result (CD27 on CHO cells [10]) | Kd (mouse CTLA-4) [nM] | Fold Change (EC50 of cyno divided by EC50 of human) [11] | Fold Change (EC50 of cyno divided by EC50 of human) [12]
1 | antibody A9 (L9H9) (antibody, V domains shown, also called aCTLA-4.24) VH: QVQLVESGGGVVQPGRSLRLSCAASGFTFSSHGMHWVRQAPGKGLEWVAVIWYDGSNKHYADSVKGRFTISRDNSKNTLYLQMNSLRAEDTAVYYCARGDILTGYYGYWGQGTLVTVSS VL: not shown | 0.92 | no binding (tested: 300 nM) | 6.8 | 6.8 | 0.00043 | 63000 | 60.8 | 0.19 | 0.19 | 333 | 6.8 | 0.00043 | 63000 | 0.9 | 934 | 26 | no binding (tested: 10 µg/mL) | – | – | –
2 | antibody A3 (L3H3) (antibody, V domains shown, also called aCTLA-4.2) VH: QVQLVESGGGVVQPGRSLRLSCIASGFTFSSYGMHWVRQAPGKGLEWVAVNWYDGSNKHYADSVKGRFTISRDNSKNTLYLQMNSLRAEDTAVYYCARGGVWGPYFDYWGQGTLVTVSS VL: not shown | 1.2 | no binding (tested: 300 nM) | 1.5 | 1.5 | 0.00028 | 190000 | 49.8 | 0.18 | 0.18 | 273 | 1.5 | 0.00028 | 190000 | 1.2 | 1050 | 18.2 | no binding (tested: 10 µg/mL) | – | – | –
3 | antibody A1 (L1H1) (antibody, V domains shown, also called aCTLA-4.9; CTLA4.A1) VH: QVQLVESGGGVVQPGRSLRLSCAASGFTFSSFGMHWVRQAPGKGLEWVAVIWYDGRNKYYVDSVKGRFTISRDNSNNTLYLQMNSLRAEDTAVYYCARGEFFGEFFDYWGQGTLVTVSS VL: EIVLTQSPGTLSLSPGEGATLSCRASQSFSSNYLAWYQQKPGQAPRLLIYGASSRATGIPDRFSGSGSGTDFTLTISRLEPEDFAVYYCQQYGTSPFTFGPGTKVDIK | 0.96 | – | 0.77 | 0.77 | 0.00016 | 210000 | 43.2 | 0.13 | 0.13 | 237 | 0.77 | 0.00016 | 210000 | 1 | 1330 | 18.5 | no binding (tested: 10 µg/mL) | 51 | – | –
4 | Ipilimumab (antibody, V domains shown, also called commercial ipilimumab; Yervoy) VH: QVQLVESGGGVVQPGRSLRLSCAASGFTFSSYTMHWVRQAPGKGLEWVTFISYDGNNKYYADSVKGRFTISRDNSKNTLYLQMNSLRAEDTAIYYCARTGWLGPFDYWGQGTLVTVSSA VL: not shown | – | – | – | – | – | – | – | – | – | – | – | – | – | – | – | – | – | – | 1.6 | 1.3
